What is called Km is the concentration of substrate that gives half-maximal velocity. Broadly, the kcat is the number of substrate molecules converted per active site and unit of time at saturation. The kcat/Km is the second-order rate constant that governs catalysis at low substrate concentration.

Our source for the Km, kcat and kcat/Km values is paper PMC4337239, “Polyol specificity of recombinant Arabidopsis thaliana sorbitol dehydrogenase studied by enzyme kinetics and in silico modeling” (Frontiers in Plant Science, 2015).

Holding throughout (assay): purified protein
Substrate in data set [1]: OC[C@@H](O)[C@@H](O)[C@@H](O)CO
To be noted: 1.36 mM NAD+, 100 mM Tris-HCl pH 9, 25 °C, Michaelis-Menten fit.

Substrate in data set [2]: OC[C@@H](O)[C@H](O)[C@@H](O)CO
To be noted: 1.36 mM NAD+, 100 mM Tris-HCl pH 9, 25 °C, fit with substrate inhibition.

Substrate in data set [3]: OC[C@@H](O)[C@@H](O)[C@H](O)[C@@H](O)CO
In kind it is biochemical, Arabidopsis thaliana. To be noted: 1.36 mM NAD+, 100 mM Tris-HCl pH 9, 25 °C, Michaelis-Menten fit.

B1: recombinant AtSDH (Arabidopsis thaliana) (protein)
chain: MGKGGMSQGEGSKVEEENMAAWLVGINTLKIQPFLLPSVGPHDVRVRMKAVGICGSDVHYLKTMRCADFVVKEPMVIGHECAGIIEEVGEEVKHLVVGDRVALEPGISCWRCNLCREGRYNLCPEMKFFATPPVHGSLANQVVHPADLCFKLPENVSLEEGAMCEPLSVGVHACRRAEVGPETNVLVMGAGPIGLVTMLAARAFSVPRIVIVDVDENRLAVAKQLGADEIVQVTTNLEDVGSEVEQIQKAMGSNIDVTFDCAGFNKTMSTALAATRCGGKVCLVGMGHGIMTVPLTPAAAREVDVVGVFRYKNTWPLCLEFLTSGKIDVKPLITHRFGFSQKEVEDAFETSARGSNAIKVMFNL
notes: full length 364 residues; N-terminal 6xHis tag cut off by TEV protease; pEXP5-NT/TOPO, cell-free in vitro expression (Expressway); oligomeric state not determined
As to B1, in the data set “purified protein [1]”, the Km was 1050 ± 100 µM, the kcat was 1.83 s⁻¹ and the catalytic efficiency (kcat/Km) worked out at 1740 M⁻¹ s⁻¹. For the same protein, in “purified protein [2]”, the Km is 270 ± 40 µM, the catalytic constant (kcat) was found to be 2.12 s⁻¹ and the specificity constant (kcat/Km) is 7740 M⁻¹ s⁻¹. Besides, in the data set “purified protein [3]”, the Km was determined as 960 ± 70 µM, the kcat was 2.13 ± 0.03 s⁻¹ and the kcat/Km was 2230 ± 170 M⁻¹ s⁻¹.
